In patent US20220235128A1:
Changes are numbered by the printed parent chain.

B1: QP190191 (antibody, V domains shown)
VH: EVKLVESGGGLVKPGGSLKLSCAASGFTFSNYAMSWVRQTPEKRLEWVASIISGGRTYYLDSEKGRFTISRDNARNNLYLQMSSLRSEDTAMYYCTRIYYGNSFDYWGQGTTLTVSS
VL: DIVMTQSPSSQTVTAGEKVTMSCKSSQSLLNSGNQKNYLTWYQQKPGQPPKLLIYWASTRESGVPDRFTGSGSGTDFTLTISNMQAEDLAVYYCQNDYSYPFTFGSGTKLEIK
B2: QP201202 (antibody, V domains shown)
VH: EVQLQQSGPELVKPGASVKMSCKASGYTFTNYFVHWVKQKPGQGLEWIGYINPYNDDTKYNEKFKGKATLTSDKSSSTAYMDLSSLTSEDSAVYYCLSLRFFAYWGQGTLVTVSA
VL: B1 VL with Q11L, P49A, T69I, N83H, M84V, Y93F, F102L, S106A, K109N, I112L
B3: QP192193 (antibody, V domains shown)
VH: QVQLQQSGAELVRPGSSVKISCKASGYAFSSYWMNWVKQRPGQGLEWIGQIYPGNGDTTYNGKFKGQATLTADKSSSTVYMQLSSLTSEDSAVYFCARFVKGNAMDYWGQGTSVTVSS
VL: B1 VL with Q11L, K45N, L52M, T75I, T78S, N83S, M84V, V91L, D97A
B4: QP207208 (antibody, V domains shown)
VH: EVQLQQSGPELVKPGASVKMSCKASGYTFTSYIMHWVKQKPGQGLEWIGYINPYNDGTKYNEKFKGKATLTSDKSSSTVYMELSSLTSEDSAVYCCARLGFTTRNAMDYWGQGTSVTVSS
VL: B1 VL with Q11L, T12S, T14S, S22N, T40A, W56G, N83S, M84V, Y98H

Target: claudin 18.2 (isoform 2 subtype of CLDN18) (UniProt P56856)
Experiment: FACS, 5 ug/ml antibody on dissociated GA0006 gastric cancer PDX tumor cells, PE anti-human IgG Fc

Ratio of antibody-bound cells [%]	Molecule
85.6	IMAB362 (Claudiximab) (antibody)
91.5	B1
90	B2
92.4	B3
91.7	B4
